Laboratory results from IntAct's records for PubMed 15546359.

B1: Auxin-responsive protein IAA1 (Arabidopsis thaliana (Mouse-ear cress)), P49677 (parent)
chain: MEVTNGLNLKDTELRLGLPGAQEEQQLELSCVRSNNKRKNNDSTEESAPPPAKTQIVGWPPVRSNRKNNNNKNVSYVKVSMDGAPYLRKIDLKMYKNYPELLKALENMFKFTVGEYSEREGYKGSGFVPTYEDKDGDWMLVGDVPWDMFSSSCQKLRIMKGSEAPTAL
partner: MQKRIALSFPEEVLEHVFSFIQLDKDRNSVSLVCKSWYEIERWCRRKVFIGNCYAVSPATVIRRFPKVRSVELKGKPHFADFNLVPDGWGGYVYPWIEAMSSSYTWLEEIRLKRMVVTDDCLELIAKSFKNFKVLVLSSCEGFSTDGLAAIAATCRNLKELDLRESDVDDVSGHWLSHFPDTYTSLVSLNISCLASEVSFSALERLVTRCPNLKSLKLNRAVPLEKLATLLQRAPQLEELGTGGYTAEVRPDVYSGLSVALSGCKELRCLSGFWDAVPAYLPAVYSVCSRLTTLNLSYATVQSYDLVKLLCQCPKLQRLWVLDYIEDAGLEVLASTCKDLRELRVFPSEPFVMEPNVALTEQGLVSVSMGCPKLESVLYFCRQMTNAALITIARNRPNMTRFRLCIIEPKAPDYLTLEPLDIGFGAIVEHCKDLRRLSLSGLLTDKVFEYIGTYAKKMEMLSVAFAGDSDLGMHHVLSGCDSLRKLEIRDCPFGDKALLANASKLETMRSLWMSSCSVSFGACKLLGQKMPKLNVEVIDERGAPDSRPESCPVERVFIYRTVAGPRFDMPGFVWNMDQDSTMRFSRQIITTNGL

Variants of: B1
Conditions: with tir1_arath TIR1, Q570C0

Row | effect of a mutation on the interaction | Variant
1 | decreasing interaction | MEVTNGLNLKDTELRLGLPGAQEEQQLELSCVRSNNKRKNNDSTEESAPPPAKTQIVGWPSVRSNRKNNNNKNVSYVKVSMDGAPYLRKIDLKMYKNYPELLKALENMFKFTVGEYSEREGYKGSGFVPTYEDKDGDWMLVGDVPWDMFSSSCQKLRIMKGSEAPTAL [P61S]
